Series [1] concerns the target GR-DBD (human, UniProt P04150 418-506). The experiment in a line: EMSA.
Series [2] deals with AR-DBD (human, UniProt P10275 557-647). The experiment in a line: EMSA.
Sequence of AR-DBD (P10275 557-647): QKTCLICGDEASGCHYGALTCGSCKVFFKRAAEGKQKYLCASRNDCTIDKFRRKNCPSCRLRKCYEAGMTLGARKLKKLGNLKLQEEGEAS

Sequence of GR-DBD (P04150 418-506): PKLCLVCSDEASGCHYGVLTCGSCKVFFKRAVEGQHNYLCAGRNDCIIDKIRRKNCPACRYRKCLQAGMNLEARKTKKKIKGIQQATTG

B1: Shape-4 (dsDNA)
DNA 1: GGGCGTTCGGGACATAATGGCGGGAACCCCC
DNA 2: GGGGGTTCCCGCCATTATGTCCCGAACGCCC
As to B1, in series [1], the binding result is given as “binds”.

B2: Shape-3 (dsDNA)
DNA 1: AAACAAAAAGAACACCGTTTTATTTTGGTGT
DNA 2: ACACCAAAATAAAACGGTGTTCTTTTTGTTT
As to B2, in series [2], the binding result is recorded as “binds”.

B3: Shape-2 (dsDNA)
DNA 1: GGGCGGAGGGTACACCGTGTACTCTTCCCCC
DNA 2: GGGGGAAGAGTACACGGTGTACCCTCCGCCC
For B3, the binding result in series [2] was “binds”.

B4: Shape-1 (dsDNA)
DNA 1: GGCCAAAAAGAACACCGTGTACTTTTGGGCT
DNA 2: AGCCCAAAAGTACACGGTGTTCTTTTTGGCC
In the case of B4, the binding result in series [2] is given as “binds”.

These data come from PMC5749176.
